The text below walks through data of patent US20220273793A1, “HORSE IL-31 INDUCED PRURITUS MODEL” (priority 2021, published 2022).

The test system of one data set is IL-31 induced pruritus. As to the kind of experiment: Oclacitinib maleate in equine model of IL-31 induced pruritus. Further details: key to Post Treatment Score (pruritus): cumulative count of yes responses (1 per behavior per 1-min interval). The format is in vivo, Horse. Particulars: for Post Treatment Score (pruritus) / % Change vs Historical Score: individual horses. The method, then: Horses were administered either carrier only or oclacitinib maleate tablets at a determined number of hours prior to IL-31 challenge administration. […] Blood samples for pharmacokinetic analysis were collected at the time of IL-31 administration and immediately following the post-challenge observation period. Due to limited number of observation stalls, horses were challenged in batches. Batch 1 will include T01 (n=2)+T02 (n=5). Batch 2 will include T01 (n=2)+T03 (n=5). Batch 3 will include T01 (n=2)+T04 (n=5) (Table 9)
Signs of pruritus in horses include: • Biting or scratching at self • Rubbing against objects • Feet stomping • Tail flicking • Head or body shaking • Rolling • Twitching of skin
A “yes” response was indicated by marking a “1” in the space provided for the specific behavior during the one minute interval. The cumulative number of yes responses per behavior were added to determine a cumulative pruritus score for each horse.

The subject of the next data set is beagle dogs. The conditions noted are these: 1.5 μg/kg intravenous challenge dose; cited from earlier work.
For another data set, the system named is Horse. The data set can be described thus: Equine IL-31 induced pruritus model via IL-31 challenge (dose finding). The format is in vivo. The method, then:
Three to eight horses were tested at one time. Dose level depended on the pruritic response from the previous dosing group. The final desired dose was repeated. The final study design was as follows (Table 1):
Observations of normal pruritic behavior (baseline pruritus scores) were made prior to the administration of IL-31 challenge. The horses were scored the same was as post challenge observations except no IL-31 challenge was administered and observation of normal pruritic behavior was made for 30 minutes.
Following baseline pruritus score, horses were administered the IL-31 challenge. IL-31 challenge was administered intravenously to each animal via a jugular vein. The horse ID and time of administration was recorded. Recording of pruritic activity began approximately 15 to 25 minutes after the last of the horses is administered the IL-31 challenge (Table 2 (A to F) below and FIG. 1).
Classical signs of pruritus in horses include: • Biting or scratching at self • Rubbing against objects • Feet stomping • Tail flicking • Head or body shaking • Rolling • Twitching of skin
A “yes” response was indicated by marking a “1” and a “no” response was indicated by marking a “0” during the one minute interval. The cumulative number of yes responses were added to determine a cumulative Pruritus Score for each horse.

A further data set deals with T1, IL-31 (Canis lupus familiaris, UniProt A0A8I3S3D1).
T1 construct: host or cells: endogenous IL-31 of client dogs with atopic dermatitis
T1 sequence (A0A8I3S3D1 24-159): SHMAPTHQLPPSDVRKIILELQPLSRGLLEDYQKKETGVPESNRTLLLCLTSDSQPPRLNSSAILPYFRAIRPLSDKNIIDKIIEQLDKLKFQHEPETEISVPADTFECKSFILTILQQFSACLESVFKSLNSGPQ
Particulars: dogs with atopic dermatitis; cited from earlier work.

The mark [1] stands for this setting: IL-31 0.05 μg/kg IV, average (Table 2E).
Where [2] appears, read: IL-31 0.1 μg/kg IV, average (Table 2D).
Setting [3] is: IL-31 0.25 μg/kg IV, average (Table 2C).
The mark [4] stands for this setting: IL-31 0.25 μg/kg IV, repeat in second set of horses, average (Table 2F).
Where [5] appears, read: IL-31 0.25 μg/kg IV, repeat in second set of horses, individual horses (Table 2F).
The mark [6] stands for this setting: IL-31 0.5 μg/kg IV, average (Table 2B).

“And” between values parts separate entries of the source, which are not always exact repeats. Equal entries are not always repeated.

Regarding Oclacitinib maleate, the “Post Treatment Score (pruritus)” value in the data set with IL-31 induced pruritus (T02: 0.25 mg/kg oral, IL-31 0.25 mcg/kg challenge 1.5 hr after dosing) was 21 and 94 and 91 and 86 and 46; with IL-31 induced pruritus (T03: 0.25 mg/kg oral, IL-31 0.25 mcg/kg challenge 21.5 hr after dosing) it was 49 and 90 and 86 and 50 and 72; in the data set with IL-31 induced pruritus (T04: 0.25 mg/kg oral, IL-31 0.25 mcg/kg challenge 4.5 hr after dosing) it was 49 and 87 and 46 and 53 and 99. The “% Change vs Historical Score” value with IL-31 induced pruritus (T02: 0.25 mg/kg oral, challenge 1.5 hr after dosing) is −68.89% and 6.21% and −5.70% and −9.47% and −31.85%; in the data set on IL-31 induced pruritus (T03: 0.25 mg/kg oral, challenge 21.5 hr after dosing), −3.92% and 65.14% and 17.81% and −29.08% and −5.88%; in the data set with IL-31 induced pruritus (T04: 0.25 mg/kg oral, challenge 4.5 hr after dosing), −55.05% and −22.32% and −54.23% and −45.92% and −6.16%. In addition, the “reduction in average pruritic score compared to the placebo group (T01)” value was 30% in the data set with IL-31 induced pruritus (T02: 0.25 mg/kg, challenged 1.5 hours after treatment); 29% in the data set with IL-31 induced pruritus (T03: 0.25 mg/kg, challenged 21.5 hours after treatment); 31% in the data set on IL-31 induced pruritus (T04: 0.25 mg/kg, challenged 4.5 hours after treatment).

B1: recombinant canine IL-31: recombinant canine IL-31 used as intravenous challenge in beagle dogs (protein)
chain: T1 sequence (A0A8I3S3D1 24-159)
For B1, the pruritus duration in the data set with beagle dogs is below 24 h.

B2: IL-31: recombinant histidine tagged equine IL-31 polypeptide, SEQ ID NO: 10 less signal sequence, used as IV challenge material (protein)
chain: GPIYQLQPKEIQAIIVELQNLSKKLLDDYLNKEKGVQKFDSDLPSCFTSDSQAPGNINSSAILPYFKAISPSLNNDKSLYIIEQLDKLNFQNAPETEVSMPTDNFERKRFILTILRWFSNCLEHRAQHHHHHH
B2: the “Post Challenge Pruritus Score/120” value was 50 and 36 and 67 and 43 and 25 and 42 and 45 and 37 in the data set with Horse (IL-31 0.05 μg/kg IV, 120 min observation, individual horses (Table 2E)); 62 and 72 and 115 and 74 and 71 and 86 and 96 and 103 in the data set with Horse (IL-31 0.1 μg/kg IV, 120 min observation, individual horses (Table 2D)); 95 and 84 and 109 and 81 and 86 and 113 (2×) with Horse (IL-31 0.25 μg/kg IV, 120 min observation, individual horses (Table 2C)); 56 and 20 and 11 and 87 and 68 and 86 and 52 and 81 with Horse (setting [5]); 120 (2×) and 70 and 117 and 106 and 93 and 110 in the data set on Horse (IL-31 0.5 μg/kg IV, 120 min observation, individual horses (Table 2B)); 120 (2×) and 104 with Horse (IL-31 1.0 μg/kg IV, 120 min observation, individual horses (Table 2A)). Also, the “Post Challenge Pruritus %, Average” value in the data set on Horse (setting [1]) is given as 36%; in the data set with Horse (setting [2]), 71%; in the data set with Horse (setting [3]) it was 81%; with Horse (setting [4]) it was 48%; in the data set on Horse (setting [6]) it was 88%; in the data set on Horse (IL-31 1.0 μg/kg IV, average (Table 2A)), 96%. In addition, the “Post Challenge Pruritus Score/120, Average” value in the data set on Horse (setting [1]) is recorded as 43.1; with Horse (setting [2]) it was 84.9; in the data set with Horse (setting [3]) it was 97.3; with Horse (setting [4]), 57.6; in the data set on Horse (setting [6]), 105.1; in the data set on Horse (IL-31 1.0 μg/kg IV, 120 min observation, average (Table 2A)) it was 114.7. The “Post Challenge Pruritus %” value in the data set with Horse (IL-31 0.05 μg/kg IV, individual horses (Table 2E)) is 42% and 30% and 56% and 36% and 21% and 35% and 38% and 31%; in the data set on Horse (IL-31 0.1 μg/kg IV, individual horses (Table 2D)), 52% and 60% and 96% and 62% and 59% and 72% and 80% and 86%; in the data set on Horse (IL-31 0.25 μg/kg IV, individual horses (Table 2C)), 79% and 70% and 91% and 68% and 72% and 94% (2×); with Horse (setting [5]), 47% and 17% and 9% and 73% and 57% and 72% and 43% and 68%; in the data set with Horse (IL-31 0.5 μg/kg IV, individual horses (Table 2B)), 100% (2×) and 58% and 98% and 88% and 78% and 92%; with Horse (IL-31 1.0 μg/kg IV, individual horses (Table 2A)) it was 100% (2×) and 87%. Further, the “Animal health observations after post challenge observation period” value in the data set with Horse (IL-31 1.0 μg/kg IV, first three horses, given diphenhydramine) is “uncomfortable level of pruritus and needed treatment”. For the same molecule, the “Animal health observations: adverse events of anaphylaxis” value in the data set with Horse (IL-31 0.05-1.0 μg/kg IV, horses) is “No adverse events of anaphylaxis were noted”.

B3: Cytopoint: canine anti-IL-31 monoclonal antibody (mAb) produced by Zoetis Inc. (antibody, chains of the INN, looked up, V domains shown)
VH: EVQLVESGGDLVKPGGSLRLSCVASGFTFSNYGMSWVRQAPGKGLQWVATISYGGSYTYYPDNIKGRFTISRDNAKNTLYLQMNSLRAEDTAMYYCVRGYGYDTMDYWGQGTLVTVSS
VL: EIVMTQSPASLSLSQEEKVTITCKASQSVSFAGTGLMHWYQQKPGQAPKLLIYRASNLEAGVPSRFSGSGSGTDFSFTISSLEPEDVAVYYCQQSREYPWTFGQGTKLEIK
B3: the “effect on pruritus and skin lesions” value with IL-31 is “reduce pruritus and skin lesions”.
